Drawing on the RNAGym collection of RNA variant scans (doi:10.1093/molbev/msab373), this text covers reverse-splicing fitness for 84 variants.

First the molecules themselves.
B1: Azoarcus group I ribozyme (parent)
chain: GUGCCUUGCGCCGGGAAACCACGCAAGGGAUGGUGUCAAAUUCGGCGAAACCUAAGCGCCCGCCCGGGCGUAUGGCAACGCCGAGCCAAGCUUCGGCGCCUGCGCCGAUGAAGGUGUAGAGACUAGACGGCACCCACCUAAGGCAAACGCUAUGGUGAAGGCAUAGUCCAGGGAGUGGCGAAAGUCACACAAACCGG

Variants of B1 are the subject of the data set. The data set can be described thus: reverse-splicing fitness (ratio to wild type); higher = more active; in vitro selection; Mg2+ level not given. In short, it runs like this: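 An in vitro group I ribozyme library with randomized positions was T7-transcribed and gel-purified. In triplicate, 10 pmol RNA in EPPS pH 7.5 was reacted with 50 pmoles of a 30-nt RNA substrate for 1 h at 37 °C across several added MgCl2 levels (1–48 mM), then stopped with EDTA. Products were reverse transcribed from a substrate-complementary primer, PCR-amplified and sequenced (HiSeq 4000). Fitness is a variant's read proportion after selection over that before, normalised to wild type.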
On to C82U A111U A120G C150G U176C, for which the reverse-splicing fitness worked out at 0.00776.
In the case of C82U A111U A120G C150A U176G it was 0.00633; in that of C82U A111U A120G C150A U176A, 0.0114.
In the case of C82U A111U A120G C150A U176C it was 0.0164; in that of C82U A111U A120C C150U C169A U176A, 0.015.
For C82U A111U A120C C150U C169A U176G, the reverse-splicing fitness turned out to be 0.00474.
In the case of C82U A111U A120C C150U C169A U176C it was 0.0129.
In the case of C82U A111U A120G A145G C150U C169A U176A it was 0.0135.
In the case of C82U A111U A120G A145G C150U C169A U176G it was 0.00525.
As for C82U A111U A120G A145G C150U C169A U176C, the reverse-splicing fitness amounted to 0.0123.
In the case of C82U A111U A120G A145U U176A it was 0.012; in that of C82U A111U A120G A145U U176C, 0.0131.
The result for C82U A111U A120G A145U U176G reads 0.0045; that for C82U A111U A120G A145U C150U C169U U176A, 0.0203; that for C82U A111U A120G A145U C150U C169U U176G, 0.00432.
On to C82U A111U A120G A145U C150U C169U U176C, for which the reverse-splicing fitness was 0.0139.
On to C82U A111U A120C C169U U176G, for which the reverse-splicing fitness stood at 0.00459.
With C82U A111U A120C C169U U176C, the reverse-splicing fitness was determined as 0.0164.
In the case of C82U A111U A120C C169U U176A it was 0.0196; in that of C82U A111U A120G A145U C150A, 0.00808; in that of C82U A111U A120G A145U C150U, 0.0114.
For the variant C82U A111U A120G A145U C150G, the reverse-splicing fitness is 0.00635.
For the variant C82U A111U A120G A145U C150A C169U U176G, the reverse-splicing fitness was found to be 0.00425.
In the case of C82U A111U A120G A145U C150A C169U U176A it was 0.0203; in that of C82U A111U A120G A145U C150A C169U U176C, 0.0141.
The result for C82U A111U A120C A145U C169A reads 0.00631; that for C82U A111U A120C A145U C169U, 0.0107.
In the case of C82U A111U A120C A145U C169G it was 0.00727.
Consider C82U A111U A120G A145G C150U C169G U176A, for which the reverse-splicing fitness came to 0.0129.
In the case of C82U A111U A120G A145G C150U C169G U176C it was 0.016; in that of C82U A111U A120G A145G C150U C169G U176G, 0.00411.
As for C82U A111U A120G C150U C169A, the reverse-splicing fitness worked out at 0.0102.
The result for C82U A111U A120G C150U C169G reads 0.00909.
The result for C82U A111U A120G C150U C169U reads 0.00882; that for C82U A111U A120G A145C C150U C169U, 0.00734.
In the case of C82U A111U A120G A145C C150U C169G it was 0.00792; in that of C82U A111U A120G A145C C150U C169A, 0.00726; in that of C82U A111U A120G A145G C150G C169A U176A, 0.0128.
As to C82U A111U A120G A145G C150G C169A U176G, the reverse-splicing fitness was found to be 0.00764.
C82U A111U A120G A145G C150G C169A U176C: the reverse-splicing fitness turned out to be 0.0113.
The result for C82U A111U A120G A145C C150U U176G reads 0.00412; that for C82U A111U A120G A145C C150U U176A, 0.00859.
The result for C82U A111U A120G A145C C150U U176C reads 0.00906.
In the case of C82U A111U A120G A145G C150G U176G it was 0.00543.
As for C82U A111U A120G A145G C150G U176C, the reverse-splicing fitness amounted to 0.00919.
The result for C82U A111U A120G A145G C150G U176A reads 0.0062; that for C82U A111U A120C C150A C169G U176G, 0.00669.
The result for C82U A111U A120C C150A C169G U176C reads 0.0181; that for C82U A111U A120C C150A C169G U176A, 0.0178; that for C82U A111U A120G A145C C169A, 0.007.
The result for C82U A111U A120G A145C C169U reads 0.00777; that for C82U A111U A120G A145C C169G, 0.00962.
For C82U A111U A120G A145G C150G C169G, the reverse-splicing fitness is 0.00719.
In the case of C82U A111U A120G A145G C150G C169U it was 0.0089; in that of C82U A111U A120G A145G C150G C169A, 0.00888; in that of C82U A111U A120G A145G C150U C169U, 0.0104.
The result for C82U A111U A120G A145G C150U C169A reads 0.00995; that for C82U A111U A120G A145G C150U C169G, 0.00964; that for C82U A111U A120G A145U C150A C169G U176A, 0.0132.
As for C82U A111U A120G A145U C150A C169G U176G, the reverse-splicing fitness was found to be 0.0044.
In the case of C82U A111U A120G A145U C150A C169G U176C it was 0.0136; in that of C82U A111U A120G A145C C150U C169U U176A, 0.0187.
As to C82U A111U A120G A145C C150U C169U U176G, the reverse-splicing fitness turned out to be 0.00401.
In the case of C82U A111U A120G A145C C150U C169U U176C it was 0.00897; in that of C82U A111U A120G C150G C169G, 0.00757.
In the case of C82U A111U A120G C150G C169A it was 0.00782; in that of C82U A111U A120G C150G C169U, 0.00755.
With C82U A111U A120G A145U C150A C169A U176C, the reverse-splicing fitness was determined as 0.0092.
In the case of C82U A111U A120G A145U C150A C169A U176A it was 0.0137; in that of C82U A111U A120G A145U C150A C169A U176G, 0.00508.
In the case of C82U A111U A120G A145C C169G U176G it was 0.004; in that of C82U A111U A120G A145C C169G U176A, 0.0262; in that of C82U A111U A120G A145C C169G U176C, 0.0149.
For C82U A111U A120G, the reverse-splicing fitness is 0.0168.
The result for C82U A111U A120G A145U C150U C169A U176C reads 0.00959; that for C82U A111U A120G A145U C150U C169A U176A, 0.0127; that for C82U A111U A120G A145U C150U C169A U176G, 0.00462.
The result for C82U A111U A120C A145U C169G U176C reads 0.00955.
For the variant C82U A111U A120C A145U C169G U176A, the reverse-splicing fitness came out at 0.00882.
In the case of C82U A111U A120C A145U C169G U176G it was 0.00433; in that of C82U A111U A120G C169A U176A, 0.0178; in that of C82U A111U A120G C169A U176C, 0.0221.
The result for C82U A111U A120G C169A U176G reads 0.00417.
On to C82U A111U A120G A145U C150G C169G U176C, for which the reverse-splicing fitness stood at 0.00435.
